Paper PMC11026163, “Structural basis for excitatory neuropeptide signaling” (Nature Structural & Molecular Biology, 2024)
Several values for one entry are separate records, joined by “and”; a condition that tells them apart may be missing. Equal values may be shown once. Values belong to the molecule of their own block, whether it stands above or below them. Non-standard residues stand in square brackets, D forms with d. No end group written: not given here. Cit = NC(=O)NCCC[C@H](N)C(=O)O

Legend:
[1] = target: FMRFamide-gated sodium channel 1 (FaNaC1) from Malacoceros fuliginosus (Malacoceros fuliginosus); assay: cryo-EM structure; FaNaC1 in POPC:POPG (3:1) lipid nanodiscs, 20 mM HEPES pH 7.6, 150 mM NaCl; alone, or with FMRFa 30 µM or ASSFVRIa 100 µM added directly before freezing; C3 symmetry imposed
FaNaC1 H297S [2] = assay: TEVC, FMRFa- and ASSFVRIa-gated currents at H297S channels; format: cell-based, Malacoceros fuliginosus; details: normalized to maximum FMRFa-gated current
Excerpt: (§1) Fig. 6 FaNaC1 gating mechanism. a, Overlay of ligand-free FaNaC1 (blue) and FaNaC1/FMRFa/diminazene (orange) structures. Adjacent subunit in darker shades. b, Magnified views of boxed regions, left to right: ligand binding site; palm domain; β-turn–TM2a/TM1 interactions. Selected side chains shown as sticks and labeled. c, Illustration of one subunit (left subunit in a) moving during gating: peripheral rolling, internal stasis and β-turn moving outward to allow channel expansion. α6 helix from adjacent subunit in gray. d, Top left and bottom, example recordings from oocytes expressing mutant H297S FaNaC1 channels (scale bars, x, 30 s; y, 1 µA). Top right, mean (± s.e.m., n = 5 oocytes) responses of H297S channels to FMRFa and ASSFVRIa normalized to maximum FMRFa-gated current (I/Imax-FMRFa), compared to WT channels. […]
(§2) Oocytes were clamped at −60 mV unless otherwise indicated, and currents were measured by two-electrode voltage clamp, as previously described, using a Warner OC-725C amplifier and HEKA LIH8 + 8 interface with Patchmaster 2x90.4 software (HEKA), sampling at 500 Hz or 1 kHz and filtering at 100 Hz. Current amplitudes were measured in Clampfit v.11 (Molecular Devices). […] Data were analyzed in Prism v.9 (GraphPad) and fit with Prism v.9 variable-slope four-parameter nonlinear regression, yielding half-maximal effective activating/inhibiting concentrations (EC50/IC50). […]

FaNaC1 (WT) [3] = target: T1, FaNaC1 (WT) (Malacoceros fuliginosus, UniProt A0AAN0NP85); assay: Two-electrode voltage clamp, peptide-gated currents in Xenopus laevis oocytes expressing WT FaNaC1; format: cell-based
T1 sequence (A0AAN0NP85 1-600): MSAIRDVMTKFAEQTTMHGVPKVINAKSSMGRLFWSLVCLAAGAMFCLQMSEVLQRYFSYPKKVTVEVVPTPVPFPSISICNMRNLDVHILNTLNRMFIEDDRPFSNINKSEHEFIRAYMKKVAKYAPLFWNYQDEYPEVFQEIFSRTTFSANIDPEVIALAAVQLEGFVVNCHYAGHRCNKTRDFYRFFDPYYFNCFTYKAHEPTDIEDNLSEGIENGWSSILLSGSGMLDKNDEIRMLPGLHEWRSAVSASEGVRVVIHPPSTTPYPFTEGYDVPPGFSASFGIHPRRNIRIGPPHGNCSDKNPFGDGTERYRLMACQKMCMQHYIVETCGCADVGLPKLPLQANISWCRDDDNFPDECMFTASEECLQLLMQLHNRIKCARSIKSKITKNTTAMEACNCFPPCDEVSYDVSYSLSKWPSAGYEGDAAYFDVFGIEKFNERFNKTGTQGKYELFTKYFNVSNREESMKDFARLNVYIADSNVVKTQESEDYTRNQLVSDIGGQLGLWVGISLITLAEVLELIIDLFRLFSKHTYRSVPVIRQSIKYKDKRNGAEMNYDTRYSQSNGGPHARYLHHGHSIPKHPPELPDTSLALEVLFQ
Protocol: (§3) FaNaC1 in a modified pSP64 plasmid vector (Supplementary Notes) was used for mutagenesis and messenger RNA preparation and injection into stage V/VI Xenopus laevis oocytes (EcoCyte Bioscience). Mutants were generated by partly overlapping primers (Supplementary Table 1 and ref. [75]), and channel-coding inserts were Sanger sequenced. […] NaCl was replaced with KCl, NH4Cl or H3CNH3Cl (Merck) where appropriate.
(§4) Current amplitudes were measured in Clampfit v.11 (Molecular Devices). N values refer to experiments performed on different oocytes. Data were analyzed in Prism v.9 (GraphPad) and fit with Prism v.9 variable-slope four-parameter nonlinear regression, yielding half-maximal effective activating/inhibiting concentrations (EC50/IC50). […] Mean ± standard error of the mean (s.e.m.) EC50/IC50 from fits to individual cells reported in Main. Currents shown in figures are further filtered (20 Hz) and decimated (50×) in Clampfit 11 for smaller file size.

FaNaC1 H297S [4] = assay: TEVC, diminazene block of constitutive current of H297S channels; format: cell-based, Malacoceros fuliginosus; details: 30 µM diminazene, mean ± s.e.m., n = 7
Excerpt: as §1, §2

FaNaC1 (WT) [5] = target: T1, FaNaC1 (WT); assay: TEVC, diminazene block of peak and sustained FMRFa-gated current, WT FaNaC1 in oocytes; format: cell-based; details: per oocyte
Protocol: as §3, §4
(a) 1 μM FMRF-gated currents with and without diminazene in an oocyte expressing wildtype (WT) FaNaC1. […] Scale bars: x, 5 s; y, 0.2 µA. (b) Mean ± SEM normalized peak (n = 4 oocytes) and sustained (n = 7 oocytes) current amplitude in the presence of increasing concentrations of diminazene. […] Scale bars: x, 5 s; y, 0.1 µA. Source data

ENaCs = ENaCs possess asparagine at the 0′ position; cited from earlier work
Excerpt: Given the drug’s effect on pore radius and its voltage-dependent block of currents, we hypothesized that this nonprotein density derives from partially unresolved or low occupancy diminazene molecules. […] We ...

FaNaC1 S-1′A = assay: TEVC, diminazene block of sustained FMRFa-gated current at mutant channel; format: cell-based, Malacoceros fuliginosus; details: block of Isus
Protocol: (§5) Fig. 5 FaNaC1/FMRFa/diminazene structure. a, Pore-lining residues in FaNaC1/FMRFa/diminazene structure (left) and pore radius for all four cryo-EM structures calculated in HOLE[53] (right). b, Top, diminazene structure (ionized at pH 7.4). Middle, peak (Ipeak) and sustained (Isus) FMRFa (3 µM)-gated currents through FaNaC1 in the absence and presence of diminazene (10 μM). Bottom, % block (individual data points, n = 3 oocytes at −60 mV, 4 at 10 mV, 3 at 80 mV; and means, bars) of Isus by diminazene at three different membrane potentials. c, Magnified view of FaNaC1/FMRFa/diminazene model, showing nonprotein cryo-EM density in the pore as mesh. d, Concentration-dependent block of Isus by diminazene at WT and mutant channels (mean ± s.e.m., n = 4 oocytes, except D0′N—see Source data). e, FMRFa-gated current amplitude (Vm = −60 mV; individual data points (n = 5) and means, bars) in extracellular solutions based on different cations. Source data
(§6) Given the drug’s effect on pore radius and its voltage-dependent block of currents, we hypothesized that this nonprotein density derives from partially unresolved or low occupancy diminazene molecules. […] We also generated mutant G2′S channels but saw no currents in oocytes injected with these RNAs (n = 8 over two batches of ooyctes). An additional helical turn higher, the S-1′A substitution caused constitutive current, as expected for mutating the TM2a-1′ degenerin position, but had no effect on diminazene potency (Fig. 5d and Extended Data Fig. 9c). […] Thus, we interpret our FaNaC1/FMRFa/diminazene structure as an FMRFa-gated, diminazene-blocked, open-channel conformation.
as §3
(§7) Oocytes were clamped at −60 mV unless otherwise indicated, and currents were measured by two-electrode voltage clamp, as previously described, using a Warner OC-725C amplifier and HEKA LIH8 + 8 interface with Patchmaster 2x90.4 software (HEKA), sampling at 500 Hz or 1 kHz and filtering at 100 Hz. Current amplitudes were measured in Clampfit v.11 (Molecular Devices). N values refer to experiments performed on different oocytes. Data were analyzed in Prism v.9 (GraphPad) and fit with Prism v.9 variable-slope four-parameter nonlinear regression, yielding half-maximal effective activating/inhibiting concentrations (EC50/IC50). In establishing EC50 values for activation by FMRFa, we waited 4 min between applications of increasing concentrations. […]

FaNaC1 G3′S = assay: as above; format: cell-based, Malacoceros fuliginosus; details: block of Isus
Protocol: as §5, §6, §3, §7

FaNaC1 D0′N = assay: as above; format: cell-based, Malacoceros fuliginosus; details: block of Isus
Protocol: as §5, §6, §3, §7

FaNaC1 G6′S = assay: as above; format: cell-based, Malacoceros fuliginosus; details: block of Isus
Protocol: as §5, §6, §3, §7

[6] = target: FMRFamide-gated sodium channel 1 (FaNaC1) from Malacoceros fuliginosus (Malacoceros fuliginosus)
[7] = target: FaNaC1 F129A (Malacoceros fuliginosus)
[8] = target: FaNaC1 V122A (Malacoceros fuliginosus)
[9] = target: FaNaC1 F129L (Malacoceros fuliginosus)
[10] = target: FMRFamide-gated sodium channel 1 (FaNaC1) from Malacoceros fuliginosus (Malacoceros fuliginosus); remark: listed apart in the source
[11] = target: FaNaC1 F129Q (Malacoceros fuliginosus)
[12] = target: FaNaC1 F97C modified by MTSET (Malacoceros fuliginosus)
[13] = target: FaNaC1 F129C modified by MTSET (Malacoceros fuliginosus)
[14] = target: FaNaC1 M238C modified by MTSET (Malacoceros fuliginosus)
[15] = target: FaNaC1 F129C (Malacoceros fuliginosus)
[16] = target: FaNaC1 F97C (Malacoceros fuliginosus)
[17] = target: FaNaC1 M238C (Malacoceros fuliginosus)
[18] = [Diminazene] 1e-7 M, 1 μM FMRF-gated current

stoichiometry N [1]: 3
Molecule: FMRFamide-gated sodium channel 1 (FaNaC1) from Malacoceros fuliginosus (receptor)

Molecule: ASSFVRI-NH2 [ASSFVRIa, product of the FVRIamide precursor in several annelids]
relative efficacy at H297S compared to WT (FaNaC1 H297S [2]): increased
agonist type (FaNaC1 (WT) [3]): partial agonist

Molecule: FVRI–NH2 [FVRIa, four C-terminal residues of ASSFVRIa]
activity compared to parent peptide ASSFVRIa (FaNaC1 (WT) [3]): very similar activity

Molecule: FMRA–NH2 [FMRAa, FMRFa analog lacking the C-terminal F4 side chain]
activation of current (FaNaC1 (WT) [3]; 100 μM peptide): barely activating detectable currents

Molecule: N=C(N)c1ccc(/N=N/Nc2ccc(C(=N)N)cc2)cc1 [diminazene]
block of constitutive current (FaNaC1 H297S [4]): 76 ± 5%
Remaining peak current (FaNaC1 (WT) [5]; [18]): 0.9158 and 0.934 and 1.161 and 1.255
Remaining sustained current (FaNaC1 (WT) [5]; [18]): 0.6522 and 0.7647 and 0.9533 and 0.9846 and 0.7407 and 0.6744
Remaining peak current (FaNaC1 (WT) [5]; [Diminazene] 1e-6 M): 0.5053 and 0.783 and 0.8871 and 0.9636
sensitivity to diminazene (ENaCs): insensitive
effect of mutation on diminazene potency (FaNaC1 S-1′A): no effect
effect of mutation on diminazene potency (FaNaC1 G3′S): modestly reduced
effect of mutation on diminazene potency (FaNaC1 D0′N): decreased diminazene potency approximately tenfold
effect of mutation on diminazene potency (FaNaC1 G6′S): drastically reduced

EC50 of peptide-gated current, two-electrode voltage clamp, Xenopus oocytes expressing WT FaNaC1 [6]: 690 nM
B1: FM(citrulline)F-NH2 (peptide)
peptide: FM[Cit]F-NH2
modifications: N-terminus assumed
SMILES: CSCC[C@H](NC(=O)[C@@H](N)Cc1ccccc1)C(=O)N[C@@H](CCCNC(N)=O)C(=O)N[C@@H](Cc1ccccc1)C(N)=O

EC50 of peptide-gated current, two-electrode voltage clamp, Xenopus oocytes expressing WT FaNaC1 [6]: 300 nM
Molecule: AMRF-NH2 [AMRF-NH2]

EC50 of peptide-gated current, two-electrode voltage clamp, Xenopus oocytes expressing WT FaNaC1 [6]: 4500 nM
Molecule: FMQF-NH2 [FMQF-NH2]

EC50 of FMRFa-gated current, two-electrode voltage clamp, Xenopus oocytes [7]: 18 µM
EC50 of FMRFa-gated current, two-electrode voltage clamp, Xenopus oocytes (20-fold increase in potency) [8]: 40 nM
EC50 of FMRFa-gated current, two-electrode voltage clamp, Xenopus oocytes [9]: 9 µM
EC50 of FMRFa-gated current, two-electrode voltage clamp, Xenopus oocytes expressing WT FaNaC1 [10]: 850 nM
fold decrease of FMRFa potency (EC50 of gated current) against WT, two-electrode voltage clamp, Xenopus oocytes [11]: 100 fold
EC50 of FMRFa-gated current with MTSET, two-electrode voltage clamp, Xenopus oocytes [12]: 4 µM
EC50 of FMRFa-gated current with MTSET, two-electrode voltage clamp, Xenopus oocytes [13]: > 10 µM
EC50 of FMRFa-gated current with MTSET, two-electrode voltage clamp, Xenopus oocytes [14]: 580 nM
EC50 of FMRFa-gated current without MTSET, two-electrode voltage clamp, Xenopus oocytes [15]: 5 µM
EC50 of FMRFa-gated current without MTSET, two-electrode voltage clamp, Xenopus oocytes [16]: 250 nM
EC50 of FMRFa-gated current without MTSET, two-electrode voltage clamp, Xenopus oocytes [17]: 140 nM
Molecule: H-FMRF-NH2 [FMRFamide (H-Phe-Met-Arg-Phe-NH2)]
